Results published in US20220227853A1 (US Dept. of Health and Human Services, published 2022).

Target: T1, full-length PfCSP on the surface of transgenic P. berghei sporozoites (Pb-PfCSP) (Plasmodium falciparum, UniProt Q7K740 19-374)
T1 construct: whole, on cells; also called Pb-PfCSP SPZ; Pb-PfCSP SPZ GFP/Luc
Assay: flow cytometry on Pb-PfCSP sporozoites, mAb 20 µg/mL, MFI

T1 sequence (Q7K740 19-374): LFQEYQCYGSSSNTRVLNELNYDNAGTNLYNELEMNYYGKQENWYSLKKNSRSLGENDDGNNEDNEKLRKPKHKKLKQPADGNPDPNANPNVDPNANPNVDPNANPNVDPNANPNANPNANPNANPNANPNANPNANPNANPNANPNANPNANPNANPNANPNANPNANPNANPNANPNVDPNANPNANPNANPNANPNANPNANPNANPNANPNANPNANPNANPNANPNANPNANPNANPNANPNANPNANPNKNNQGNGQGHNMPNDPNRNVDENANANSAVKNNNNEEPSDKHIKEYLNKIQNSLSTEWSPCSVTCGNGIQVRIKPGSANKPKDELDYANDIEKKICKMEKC

B1: CIS43 human monoclonal antibody (antibody, V domains shown)
VH: QVQLVQSGAEVKKPGASVKVSCKASGYTFTSYAIHWVRQAPGQRLEWMGWIKAGNGNTRYSQKFQDRVTITRDTSTTTAYMELSSLRSEDTAVYYCALLTVLTPDDAFDIWGQGTMVTVSS
VL: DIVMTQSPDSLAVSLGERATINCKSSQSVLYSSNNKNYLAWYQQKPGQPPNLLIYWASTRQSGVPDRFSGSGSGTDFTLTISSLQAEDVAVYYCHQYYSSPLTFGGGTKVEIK
notes: also called CIS43 IgG
binding result: binds
